± gives the standard error.
Assay: background-corrected fluorescence of 3'-dye-labeled ssDNA relative to brightest sequence (3'-GCGCG) (fraction); higher = brighter dye fluorescence (less quenching)
How it was run: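 Single-stranded DNA was built on glass slides by light-directed phosphoramidite synthesis, ending in a 3' Cy3 or Cy5 dye beside each of 1024 permuted pentamers. Arrays were washed in acetonitrile for 2 h at r.t., then scanned at 532 or 635 nm before and after overnight ethylenediamine/ethanol deprotection. Each value averages 10 features per array and at least 3 syntheses. Fluorescence, corrected by subtracting unlabeled-oligo background, is scaled to the brightest sequence.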

Sequence	background-corrected fluorescence (dye: Cy3 (3' terminal))	background-corrected fluorescence (dye: Cy5 (3' terminal))
TTTTTTCATGCTGCTGATGCTTTTTTTTTTTTTTTGAACA [ACAAG]	0.505 ± 0.013	0.394 ± 0.024
TTTTTTCATGCTGCTGCGCATTTTTTTTTTTTTTTGAAAT [TAAAG]	0.574 ± 0.015	0.419 ± 0.025
TTTTTTCATGCTGCTGCTCATTTTTTTTTTTTTTTGAAAG	0.574 ± 0.028	0.431 ± 0.056
TTTTTTCATGCTGCTGCTGATTTTTTTTTTTTTTTGAAAC [CAAAG]	0.43 ± 0.023	0.333 ± 0.045
TTTTTTCATGCTGCTGCTGCTTTTTTTTTTTTTTTGAAAA [AAAAG]	0.63 ± 0.012	0.491 ± 0.052
TTTTTTGAGCAGCAGCAGCATTTTTTTTTTTTTTTCTTTT	0.494 ± 0.021	0.357 ± 0.035
TTTTTTGAGCAGCAGCATCATTTTTTTTTTTTTTTCTTTG [GTTTC]	0.498 ± 0.024	0.343 ± 0.027
TTTTTTGAGCAGCAGCATGATTTTTTTTTTTTTTTCTTTC	0.389 ± 0.014	0.297 ± 0.05
TTTTTTGAGCAGCAGCATGCTTTTTTTTTTTTTTTCTTTA [ATTTC]	0.48 ± 0.016	0.4 ± 0.037
TTTTTTGAGCAGCATCAGCATTTTTTTTTTTTTTTCTTGT [TGTTC]	0.604 ± 0.019	0.429 ± 0.024
TTTTTTGAGCAGCATCATCATTTTTTTTTTTTTTTCTTGG [GGTTC]	0.631 ± 0.038	0.47 ± 0.05
TTTTTTGAGCAGCATCATGATTTTTTTTTTTTTTTCTTGC [CGTTC]	0.481 ± 0.026	0.365 ± 0.022
TTTTTTGAGCAGCATCATGCTTTTTTTTTTTTTTTCTTGA [AGTTC]	0.615 ± 0.027	0.53 ± 0.07
TTTTTTGAGCAGCATGAGCATTTTTTTTTTTTTTTCTTCT	0.441 ± 0.027	0.342 ± 0.027
TTTTTTGAGCAGCATGATCATTTTTTTTTTTTTTTCTTCG [GCTTC]	0.477 ± 0.0068	0.384 ± 0.019
TTTTTTGAGCAGCATGATGATTTTTTTTTTTTTTTCTTCC [CCTTC]	0.345 ± 0.016	0.229 ± 0.015
TTTTTTGAGCAGCATGATGCTTTTTTTTTTTTTTTCTTCA [ACTTC]	0.455 ± 0.027	0.382 ± 0.041
TTTTTTGAGCAGCATGCGCATTTTTTTTTTTTTTTCTTAT [TATTC]	0.513 ± 0.029	0.369 ± 0.025
TTTTTTGAGCAGCATGCTCATTTTTTTTTTTTTTTCTTAG [GATTC]	0.528 ± 0.014	0.395 ± 0.039
TTTTTTGAGCAGCATGCTGATTTTTTTTTTTTTTTCTTAC [CATTC]	0.404 ± 0.026	0.3 ± 0.017
TTTTTTGAGCAGCATGCTGCTTTTTTTTTTTTTTTCTTAA [AATTC]	0.562 ± 0.019	0.427 ± 0.039
TTTTTTGAGCATCAGCAGCATTTTTTTTTTTTTTTCTGTT [TTGTC]	0.541 ± 0.023	0.411 ± 0.033
TTTTTTGAGCATCAGCATCATTTTTTTTTTTTTTTCTGTG [GTGTC]	0.559 ± 0.039	0.425 ± 0.021

Sequence	background-corrected fluorescence (dye: Cy3 (3' terminal))	background-corrected fluorescence (dye: Cy5 (3' terminal))
TTTTTTGAGCATCAGCATGATTTTTTTTTTTTTTTCTGTC	0.443 ± 0.03	0.352 ± 0.018
TTTTTTGAGCATCAGCATGCTTTTTTTTTTTTTTTCTGTA [ATGTC]	0.571 ± 0.019	0.429 ± 0.072
TTTTTTGAGCATCATCAGCATTTTTTTTTTTTTTTCTGGT [TGGTC]	0.653 ± 0.018	0.557 ± 0.035
TTTTTTGAGCATCATCATCATTTTTTTTTTTTTTTCTGGG [GGGTC]	0.668 ± 0.018	0.563 ± 0.043
TTTTTTGAGCATCATCATGATTTTTTTTTTTTTTTCTGGC [CGGTC]	0.533 ± 0.0091	0.439 ± 0.035
TTTTTTGAGCATCATCATGCTTTTTTTTTTTTTTTCTGGA [AGGTC]	0.69 ± 0.023	0.605 ± 0.047
TTTTTTGAGCATCATGAGCATTTTTTTTTTTTTTTCTGCT [TCGTC]	0.492 ± 0.021	0.39 ± 0.049
TTTTTTGAGCATCATGATCATTTTTTTTTTTTTTTCTGCG [GCGTC]	0.589 ± 0.024	0.483 ± 0.051
TTTTTTGAGCATCATGATGATTTTTTTTTTTTTTTCTGCC [CCGTC]	0.402 ± 0.027	0.312 ± 0.018
TTTTTTGAGCATCATGATGCTTTTTTTTTTTTTTTCTGCA [ACGTC]	0.557 ± 0.03	0.452 ± 0.046
TTTTTTGAGCATCATGCGCATTTTTTTTTTTTTTTCTGAT [TAGTC]	0.59 ± 0.02	0.455 ± 0.036
TTTTTTGAGCATCATGCTCATTTTTTTTTTTTTTTCTGAG [GAGTC]	0.621 ± 0.024	0.479 ± 0.041
TTTTTTGAGCATCATGCTGATTTTTTTTTTTTTTTCTGAC [CAGTC]	0.465 ± 0.024	0.354 ± 0.033
TTTTTTGAGCATCATGCTGCTTTTTTTTTTTTTTTCTGAA [AAGTC]	0.575 ± 0.026	0.514 ± 0.029
TTTTTTGAGCATGAGCAGCATTTTTTTTTTTTTTTCTCTT	0.49 ± 0.0076	0.334 ± 0.024
TTTTTTGAGCATGAGCATCATTTTTTTTTTTTTTTCTCTG [GTCTC]	0.48 ± 0.018	0.352 ± 0.033
TTTTTTGAGCATGAGCATGATTTTTTTTTTTTTTTCTCTC	0.357 ± 0.036	0.284 ± 0.019
TTTTTTGAGCATGAGCATGCTTTTTTTTTTTTTTTCTCTA [ATCTC]	0.483 ± 0.0051	0.36 ± 0.023
TTTTTTGAGCATGATCAGCATTTTTTTTTTTTTTTCTCGT [TGCTC]	0.567 ± 0.015	0.416 ± 0.024
TTTTTTGAGCATGATCATCATTTTTTTTTTTTTTTCTCGG [GGCTC]	0.641 ± 0.034	0.508 ± 0.037
TTTTTTGAGCATGATCATGATTTTTTTTTTTTTTTCTCGC [CGCTC]	0.548 ± 0.032	0.412 ± 0.035
TTTTTTGAGCATGATCATGCTTTTTTTTTTTTTTTCTCGA [AGCTC]	0.599 ± 0.011	0.49 ± 0.03
TTTTTTGAGCATGATGAGCATTTTTTTTTTTTTTTCTCCT [TCCTC]	0.41 ± 0.018	0.33 ± 0.032

Sequence	background-corrected fluorescence (dye: Cy3 (3' terminal))	background-corrected fluorescence (dye: Cy5 (3' terminal))
TTTTTTGAGCATGATGATCATTTTTTTTTTTTTTTCTCCG [GCCTC]	0.531 ± 0.02	0.426 ± 0.028
TTTTTTGAGCATGATGATGATTTTTTTTTTTTTTTCTCCC [CCCTC]	0.377 ± 0.029	0.269 ± 0.018
TTTTTTGAGCATGATGATGCTTTTTTTTTTTTTTTCTCCA [ACCTC]	0.441 ± 0.019	0.356 ± 0.055
TTTTTTGAGCATGATGCGCATTTTTTTTTTTTTTTCTCAT [TACTC]	0.513 ± 0.018	0.378 ± 0.019
TTTTTTGAGCATGATGCTCATTTTTTTTTTTTTTTCTCAG [GACTC]	0.517 ± 0.024	0.389 ± 0.03
TTTTTTGAGCATGATGCTGATTTTTTTTTTTTTTTCTCAC [CACTC]	0.391 ± 0.046	0.314 ± 0.022
TTTTTTGAGCATGATGCTGCTTTTTTTTTTTTTTTCTCAA [AACTC]	0.52 ± 0.042	0.395 ± 0.02
TTTTTTGAGCATGCGCAGCATTTTTTTTTTTTTTTCTATT [TTATC]	0.527 ± 0.047	0.402 ± 0.056
TTTTTTGAGCATGCGCATCATTTTTTTTTTTTTTTCTATG [GTATC]	0.564 ± 0.015	0.383 ± 0.029
TTTTTTGAGCATGCGCATGATTTTTTTTTTTTTTTCTATC	0.373 ± 0.025	0.309 ± 0.018
TTTTTTGAGCATGCGCATGCTTTTTTTTTTTTTTTCTATA [ATATC]	0.527 ± 0.018	0.411 ± 0.023
TTTTTTGAGCATGCTCAGCATTTTTTTTTTTTTTTCTAGT [TGATC]	0.612 ± 0.019	0.451 ± 0.029
TTTTTTGAGCATGCTCATCATTTTTTTTTTTTTTTCTAGG [GGATC]	0.647 ± 0.019	0.507 ± 0.036
TTTTTTGAGCATGCTCATGATTTTTTTTTTTTTTTCTAGC [CGATC]	0.508 ± 0.033	0.407 ± 0.04
TTTTTTGAGCATGCTCATGCTTTTTTTTTTTTTTTCTAGA [AGATC]	0.608 ± 0.035	0.529 ± 0.026
TTTTTTGAGCATGCTGAGCATTTTTTTTTTTTTTTCTACT [TCATC]	0.454 ± 0.0046	0.33 ± 0.024
TTTTTTGAGCATGCTGATCATTTTTTTTTTTTTTTCTACG [GCATC]	0.565 ± 0.027	0.416 ± 0.022
TTTTTTGAGCATGCTGATGATTTTTTTTTTTTTTTCTACC [CCATC]	0.375 ± 0.032	0.284 ± 0.016
TTTTTTGAGCATGCTGATGCTTTTTTTTTTTTTTTCTACA [ACATC]	0.498 ± 0.043	0.364 ± 0.024
TTTTTTGAGCATGCTGCGCATTTTTTTTTTTTTTTCTAAT [TAATC]	0.542 ± 0.015	0.394 ± 0.027
TTTTTTGAGCATGCTGCTCATTTTTTTTTTTTTTTCTAAG [GAATC]	0.542 ± 0.044	0.427 ± 0.031
TTTTTTGAGCATGCTGCTGATTTTTTTTTTTTTTTCTAAC [CAATC]	0.407 ± 0.026	0.316 ± 0.032

From the supplement of paper PMC9428881
